In article doi:10.1101/2020.03.22.002394:

Legend:
[1] = biological target: murine κ-opioid receptor, split GFP pair (SNAP-κOR-GFP10 and κOR-GFP11-mKate co-expressed) (murine) (UniProt P33534); assay: split reporter
[2] = biological target: murine κ-opioid receptor (κOR-GFP and SNAP-κOR, two differently tagged copies co-expressed) (murine) (UniProt P33534); assay: PhotoGate single-molecule co-localisation imaging

| GFP-positive fraction [1] | co-localization time [2] | dimeric fraction [2] | fraction of receptors in yellow spots [2] | yellow fraction at a density of 14 / µm^2 [2] | yellow fraction at densities of > 100 / µm^2 [2] | Substance |
| --- | --- | --- | --- | --- | --- | --- |
| 91% |  |  |  |  |  | murine κ-opioid receptor, split GFP pair (SNAP-κOR-GFP10 and κOR-GFP11-mKate co-expressed) (from UniProt P33534 1-380) |
|  | 476 ms | < 100% | 33% | 10% | 46% | murine κ-opioid receptor (κOR-GFP and SNAP-κOR, two differently tagged copies co-expressed) (from UniProt P33534 1-380) |
